Consider one molecule from patent US20130196320A1, “METHOD FOR IMPROVING CLEAVAGE OF DNA BY ENDONUCLEASE SENSITIVE TO METHYLATION” (CELLECTIS, priority 2010, published 2013).

This data set has as its system XPC4.1 DNA target. Nature of the data set: In vitro single turn over cleavage assay with XPC4.1. Type of data set: biochemical. Here is the method: FIG. 8: In vitro cleavage of unmethylated or methylated XPC4.1 by XPC4. A constant amount of XPC4.1 duplex (50 nM) was incubated with an excess of XPC4 (1.5 μM, final concentration) in the reaction buffer (10 mM Tris-HCl, 150 mM NaCl, pH8) at 37° C. Cleavage reaction was triggered by the addition of MgCl2 and then stopped after different time lengths by the addition of the stop buffer. This was followed by one hour of incubation at 37° C. to digest XPC4 and release free DNA molecules. Cleaved and uncleaved DNA products were separated by PAGE using a TGX Any kD precast gel (Bio-Rad), stained with SYBR Green and then quantified using Quantity One software (Bio-Rad). […]
To investigate the influence of C1234 methylation on the nuclease activity of I-Cre I, in vitro single turn over cleavage assays were performed with either unmethylated or methylated C1234 duplexes (unmethylated C1234 composed of SEQ ID NO: 31+SEQ ID NO: 32, C1234_Me full composed of SEQ ID NO: 35+SEQ ID NO: 38, C1234_Me-6a/-5b composed of SEQ ID NO: 33+SEQ ID NO: 36, C1234_Me-3a/-2b composed of SEQ ID NO: 34+SEQ ID NO: 37, C1234_Me-3a composed of SEQ ID NO: 34+SEQ ID NO: 32, C1234_Me-2b composed of SEQ ID NO: 31+SEQ ID NO: 37, respectively). […] Cleaved and uncleaved DNA products were separated by PAGE using a TGX Any kD precast gel (Bio-Rad), stained with SYBR Green and then quantified using Quantity One software (Bio-Rad). […]

B1: XPC4: engineered meganuclease (SEQ ID NO: 2) designed to cleave xeroderma pigmentosum group C gene (XPC) (protein)
chain: MANTKYNEEFLLYLAGFVDGDGSIIAQIKPNQSHKFKHALQLTFKVTQKTQRRWFLDKLVDEIGVGYVQDSGSVSNYILSEIKPLHNFLTQLQPFLELKQKQANLALKIIEQLPSAKESPDKFLEVCTWVDQVAALNDSKTRKTTSETVRAVLDSLSEKKKSSPAAGGSDKYNQALSKYNQALSKYNQALSGGGGSNKKFLLYLAGFVDSDGSIIAQIKPNQSHKFKHQLSLAFQVTQKTQRRWFLDKLVDRIGVGYVRDRGSVSDYILSKIKPLHNFLTQLQPFLKLKQKQANLVLKIIEQLPSAKESPDKFLEVCTWVDQVAALNDSKTRKTTSETVRAVLDSLSEKKKSSP
With B1, the kcat (XPC4.1_Me −11a/−10b & +10a/+11b (fully methylated)) was found to be 0.0017 ± 0.00017 s⁻¹ and the kcat (unmethylated XPC4.1) was found to be 0.0013 ± 0.00017 s⁻¹.
